What all share (assay): AUC
Assay [1] addresses N-terminally truncated SARS-CoV main protease Δ(1–6) (SARS-CoV).
For assay [2], the target named is N-terminally truncated SARS-CoV main protease Δ(1–5) (SARS-CoV).
Assay [3] deals with N-terminally truncated SARS-CoV main protease Δ(1–4) (SARS-CoV).
Assay [4] deals with C-terminally truncated SARS-CoV main protease Δ(201–306) (SARS-CoV).
Assay [5] concerns the target C-terminally truncated SARS-CoV main protease Δ(293–306) (SARS-CoV).
Assay [6] has as its target N-terminally truncated SARS-CoV main protease Δ(1–7) (SARS-CoV).

What is called Kd is the concentration at which binding is half-saturated. On to “N-terminally truncated SARS-CoV main protease Δ(1–6) (domain or fragment)”, for which, in assay [1], the dissociation constant Kd is 151 µM.
Turning to “N-terminally truncated SARS-CoV main protease Δ(1–5) (domain or fragment)”, the dissociation constant Kd in assay [2] was 35.4 µM.
Take “N-terminally truncated SARS-CoV main protease Δ(1–4) (domain or fragment)”: in assay [3], the Kd is 57.5 µM.
As for “C-terminally truncated SARS-CoV main protease Δ(201–306) (domain or fragment)”, the Kd in assay [4] was determined as 7870 µM.
Regarding “C-terminally truncated SARS-CoV main protease Δ(293–306) (domain or fragment)”, the Kd in assay [5] was 163 µM.
Regarding “N-terminally truncated SARS-CoV main protease Δ(1–7) (domain or fragment)”, the Kd in assay [6] came to 357 µM.

Source of the values: article PMC8060872.
